From paper PMC12167710 (2024)

B1: anti-human λ VHH (HuFab lambda 1) (VHH)
VHH: QVQLQDSGGGLVQPGGSLRLSCAASGFTLDYYAIGWFRQAPGKEREGVSCISSSDGSSDGYTYYADSVKGRFTISRDNAKNTVYLQMNNLKPEDTAVYYCAARLFGVATTDPSYFDSWGQGTQVTVSS
B2: anti-mouse κ VHH (TP1170) (VHH)
VHH: QVQLVESGGGWVQPGGSLRLSCAASGFTFSDTAMMWVRQAPGKGREWVAAIDTGGGYTYYADSVKGRFTISRDNAKNTLYLQMNSLKPEDTARYYCAKTYSGNYYSNYTVANYGTTGRGTLVTVSS

Assays:
[1] = molecular target: recombinant human IgG1λ isotype control antibody (clone AbD00264_hIgG1) (human, UniProt P01857 = IgG part); assay: BLI
[2] = molecular target: recombinant mouse IgG1κ isotype control antibody (clone P3.6.2.8.1) (mouse, UniProt P01868 = IgG part); assay: BLI

Binder | koff [1] | koff [2]
B1 | 0.000246 s⁻¹ | –
B2 | – | 1.18e-05 s⁻¹
